Laboratory results: article PMC9313427, “Identification and Characterization of an RRM-Containing, RNA Binding Protein in Acinetobacter baumannii”

Key:
Conditions in all cases: protein: recombinant; tags: C-terminal 6xHis; label: 5'-biotin; single strand
rAB-Elavl [1] = biological target: T1, rAB-Elavl (Acinetobacter baumannii, UniProt D0CAL6 1-86); test: AlphaScreen time-course kinetics (koff/kon); koff 0.02687 min-1; kon printed as 2.035 M-1 min-1 (exponent apparently lost); AlphaScreen: 25 mM HEPES pH 7.4, 100 mM NaCl, 0.1% BSA, RT; REMSA: 20 mM HEPES pH 7.5, 50 mM KCl, 450 uM BSA, 0.25% glycerol, RT (gel at 4 C); NMR: 20 mM HEPES
T1 sequence: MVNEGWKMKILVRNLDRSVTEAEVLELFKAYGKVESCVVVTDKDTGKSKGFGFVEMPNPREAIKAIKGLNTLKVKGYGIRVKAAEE

rAB-Elavl [2] = biological target: T1, rAB-Elavl; test: AlphaScreen saturation (probe length series); EC50; unit implied; named ARE pos 29 nt in text; AlphaScreen: 25 mM HEPES pH 7.4, 100 mM NaCl, 0.1% BSA, RT; REMSA: 20 mM HEPES pH 7.5, 50 mM KCl, 450 uM BSA, 0.25% glycerol, RT (gel at 4 C); NMR: 20 mM HEPES
rAB-Elavl [3] = biological target: T1, rAB-Elavl; test: AlphaScreen saturation; EC50, probe titrated, 500 nM protein; conflicts with 35.62 nM in Fig 8C; AlphaScreen: 25 mM HEPES pH 7.4, 100 mM NaCl, 0.1% BSA, RT; REMSA: 20 mM HEPES pH 7.5, 50 mM KCl, 450 uM BSA, 0.25% glycerol, RT (gel at 4 C); NMR: 20 mM HEPES
rAB-Elavl [4] = biological target: T1, rAB-Elavl; test: HTRF-FRET saturation; EC50; AlphaScreen: 25 mM HEPES pH 7.4, 100 mM NaCl, 0.1% BSA, RT; REMSA: 20 mM HEPES pH 7.5, 50 mM KCl, 450 uM BSA, 0.25% glycerol, RT (gel at 4 C); NMR: 20 mM HEPES
rAB-Elavl [5] = biological target: T1, rAB-Elavl; test: AlphaScreen saturation; EC50, probe titrated, 500 nM protein; AlphaScreen: 25 mM HEPES pH 7.4, 100 mM NaCl, 0.1% BSA, RT; REMSA: 20 mM HEPES pH 7.5, 50 mM KCl, 450 uM BSA, 0.25% glycerol, RT (gel at 4 C); NMR: 20 mM HEPES
rAB-Elavl [6] = biological target: T1, rAB-Elavl; test: HTRF-FRET saturation; EC50; unit implied; legend: not well bound; AlphaScreen: 25 mM HEPES pH 7.4, 100 mM NaCl, 0.1% BSA, RT; REMSA: 20 mM HEPES pH 7.5, 50 mM KCl, 450 uM BSA, 0.25% glycerol, RT (gel at 4 C); NMR: 20 mM HEPES
rAB-Elavl [7] = biological target: T1, rAB-Elavl; test: AlphaScreen saturation (probe length series); EC50 not converged; legend: minimal length for binding is 19 nt; AlphaScreen: 25 mM HEPES pH 7.4, 100 mM NaCl, 0.1% BSA, RT; REMSA: 20 mM HEPES pH 7.5, 50 mM KCl, 450 uM BSA, 0.25% glycerol, RT (gel at 4 C); NMR: 20 mM HEPES
rAB-Elavl [8] = biological target: T1, rAB-Elavl; test: AlphaScreen saturation (probe length series); EC50; unit implied; AlphaScreen: 25 mM HEPES pH 7.4, 100 mM NaCl, 0.1% BSA, RT; REMSA: 20 mM HEPES pH 7.5, 50 mM KCl, 450 uM BSA, 0.25% glycerol, RT (gel at 4 C); NMR: 20 mM HEPES

B1: ARE pos (ssRNA)
RNA: AUUAUUUAUUAUUUAUUUAUUAUUUA
Kd (rAB-Elavl [1]): 13.2 nM
apparent K (half saturation) (rAB-Elavl [2]): 35.6 nM
apparent K (half saturation) (rAB-Elavl [3]): 0.5 nM
apparent K (half saturation) (rAB-Elavl [4]): 35.1 nM

B2: ARE neg (ssRNA)
RNA: ACCACCCACCACCCACCCACCACCCA
apparent K (half saturation) (rAB-Elavl [5]): 257 nM
apparent K (half saturation) (rAB-Elavl [6]): 946 nM

B3: ARE pos 11 (ssRNA)
RNA: AUUAUUUAUUA
binding result (rAB-Elavl [7]): no binding

B4: ARE pos 19 (ssRNA)
RNA: AUUAUUUAUUAUUUAUUUA
apparent K (half saturation) (rAB-Elavl [8]): 64.8 nM
